Experimental data reported in patent publication US20060029947A1.

Target: Bacillus anthracis protective antigen (PA) (Bacillus anthracis) (UniProt P13423)
Sequence (P13423 30-764 limits assumed): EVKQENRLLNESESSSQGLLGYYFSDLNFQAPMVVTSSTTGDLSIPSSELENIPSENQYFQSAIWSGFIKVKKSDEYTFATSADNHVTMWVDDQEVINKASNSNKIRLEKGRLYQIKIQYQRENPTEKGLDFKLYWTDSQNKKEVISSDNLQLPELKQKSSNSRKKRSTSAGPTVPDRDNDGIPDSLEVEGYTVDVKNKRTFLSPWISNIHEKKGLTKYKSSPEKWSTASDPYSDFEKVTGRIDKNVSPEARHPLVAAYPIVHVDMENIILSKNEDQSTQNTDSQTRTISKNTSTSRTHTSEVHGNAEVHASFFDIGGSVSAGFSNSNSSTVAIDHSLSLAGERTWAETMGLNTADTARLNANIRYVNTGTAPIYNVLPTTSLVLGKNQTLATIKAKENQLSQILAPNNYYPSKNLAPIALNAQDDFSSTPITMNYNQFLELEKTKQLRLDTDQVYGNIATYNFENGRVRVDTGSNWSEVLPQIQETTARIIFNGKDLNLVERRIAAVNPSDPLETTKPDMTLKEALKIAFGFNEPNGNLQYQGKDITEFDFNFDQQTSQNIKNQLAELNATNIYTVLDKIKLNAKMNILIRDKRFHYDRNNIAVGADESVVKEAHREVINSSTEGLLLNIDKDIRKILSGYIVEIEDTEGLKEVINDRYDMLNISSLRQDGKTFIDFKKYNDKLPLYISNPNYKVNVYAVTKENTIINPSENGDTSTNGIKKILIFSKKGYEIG

Chain of 26-10 scFv-g3p fusion (pAK200) (P69168 268-424): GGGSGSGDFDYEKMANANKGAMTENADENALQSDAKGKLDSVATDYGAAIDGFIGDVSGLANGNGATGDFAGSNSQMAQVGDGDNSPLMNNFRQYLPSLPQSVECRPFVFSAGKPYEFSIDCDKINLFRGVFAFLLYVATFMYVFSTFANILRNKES

“26-10 scFv-g3p fusion (pAK200) (from UniProt P69168 268-424)” showed a M (mean fluorescence) of 7.25.
